Our source for the binding result and Kd values is publication PMC3605678 (The Journal of Biological Chemistry, 2013).

As usually defined, the Kd is the constant that tells how readily two partners part at equilibrium.

No end group written: not given here. Some results are limits rather than exact numbers.

Sequences and labels used below:
B5: ERK5 MAPK construct containing the N-terminal region of ERK5-(1–431) (domain or fragment)
chain: MAEPLKEEDGEDGSAEPPGPVKAEPAHTAASVAAKNLALLKARSFDVTFDVGDEYEIIETIGNGAYGVVSSARRRLTGQQVAIKKIPNAFDVVTNAKRTLRELKILKHFKHDNIIAIKDILRPTVPYGEFKSVYVVLDLMESDLHQIIHSSQPLTLEHVRYFLYQLLRGLKYMHSAQVIHRDLKPSNLLVNENCELKIGDFGMARGLCTSPAEHQYFMTEYVATRWYRAPELMLSLHEYTQAIDLWSVGCIFGEMLARRQLFPGKNYVHQLQLIMMVLGTPSPAVIQAVGAERVRAYIQSLPPRQPVPWETVYPGADRQALSLLGRMLRFEPSARISAAAALRHPFLAKYHDPDDEPDCAPPFDFAFDREALTRERIKEAIVAEIEDFHARREGIRQQIRFQPSLQPVASEPGCPDVEMPSPWAPSGDCAM

The target of experiment [1] is T1, MBP fusion of MKK5(PB1-D) (construct E, 16–130) (human, UniProt Q13163 16-130).
T1 sequence: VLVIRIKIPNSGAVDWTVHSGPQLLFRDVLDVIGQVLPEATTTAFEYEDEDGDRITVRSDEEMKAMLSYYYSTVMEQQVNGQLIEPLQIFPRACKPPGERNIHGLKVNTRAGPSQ
Description: pull-down.

Experiment [2] has as its target B5. As to the kind of experiment: pull-down.
The target of a further experiment is ERK2 (human, UniProt P28482 1-360). As to the kind of experiment: fluorescence polarisation. A general note: Polarisation of emitted light reports the rotation of a fluorescent probe.
Experiment [3] concerns the target B5. As to the kind of experiment: fluorescence polarisation.
Experiment [4] addresses B5. As to the kind of experiment: fluorescence polarisation. The source holds these as a separate data set.
Experiment [5] deals with Full-length MKK5 (MKK5_FL) (human, UniProt Q13163 1-448). Description: fluorescence polarisation.

Sequence of ERK2 (P28482 whole entry): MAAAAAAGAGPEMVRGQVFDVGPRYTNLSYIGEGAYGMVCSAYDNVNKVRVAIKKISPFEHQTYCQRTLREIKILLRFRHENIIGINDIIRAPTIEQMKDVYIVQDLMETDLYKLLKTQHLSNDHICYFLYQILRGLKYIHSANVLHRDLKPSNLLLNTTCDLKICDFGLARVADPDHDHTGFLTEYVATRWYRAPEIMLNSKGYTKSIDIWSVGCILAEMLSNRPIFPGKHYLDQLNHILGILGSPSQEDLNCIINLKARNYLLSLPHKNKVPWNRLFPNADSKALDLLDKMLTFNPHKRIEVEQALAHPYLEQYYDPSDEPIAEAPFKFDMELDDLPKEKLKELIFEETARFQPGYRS

B1: GST-MEKK3(PB1) (MEKK3 PB1 domain, residues 42–126) (domain or fragment)
chain: QSDVRIKFEHNGERRIIAFSRPVKYEDVEHKVTTVFGQPLDLHYMNNELSILLKNQDDLDKAIDILDRSSSMKSLRILLLSQDRN
Regarding B1, in experiment [1], the binding result is recorded as “binds”.

B2: MBP fusion of MKK5 construct B (113–448) (domain or fragment, human, UniProt Q13163 113-448, looked up)
chain: GERNIHGLKVNTRAGPSQHSSPAVSDSLPSNSLKKSSAELKKILANGQMNEQDIRYRDTLGHGNGGTVYKAYHVPSGKILAVKVILLDITLELQKQIMSELEILYKCDSSYIIGFYGAFFVENRISICTEFMDGGSLDVYRKMPEHVLGRIAVAVVKGLTYLWSLKILHRDVKPSNMLVNTRGQVKLCDFGVSTQLVNSIAKTYVGTNAYMAPERISGEQYGIHSDVWSLGISFMELALGRFPYPQIQKNQGSLMPLQLLQCIVDEDSPVLPVGEFSEPFVHFITQCMRKQPKERPAPEELMGHPFIVQFNDGNAAVVSMWVCRALEERRSQQGPP
Turning to B2, the binding result in experiment [2] is “binds”.

B3: pepMKK5 (peptide with the linear D-motif of MKK5) (peptide)
peptide: ASKPPGERNIHGLKVNTRA
As for B3, the Kd with ERK2 was over 100 µM; in experiment [3], 4.2 µM.

B4: pepMEF2 (labeled MEF2A D-motif peptide) (peptide)
peptide: tetramethylrhodamin-SRKPDLRVVIPPS
In the case of B4, the binding result in experiment [4] was “binds”. In experiment [5], B5 registered a Kd of under 0.1 µM.
